Measurements reported in IntAct's records for PubMed 21074049.

B1: ERAD-associated E3 ubiquitin-protein ligase HRD1 (Saccharomyces cerevisiae), Q08109 (parent)
chain: MVPENRRKQLAIFVVVTYLLTFYCVYSATKTSVSFLQVTLKLNEGFNLMVLSIFILLNSTLLWQLLTKLLFGELRLIEHEHIFERLPFTIINTLFMSSLFHERYFFTVAFFGLLLLYLKVFHWILKDRLEALLQSINDSTTMKTLIFSRFSFNLVLLAVVDYQIITRCISSIYTNQKSDIESTSLYLIQVMEFTMLLIDLLNLFLQTCLNFWEFYRSQQSLSNENNHIVHGDPTDENTVESDQSQPVLNDDDDDDDDDRQFTGLEGKFMYEKAIDVFTRFLKTALHLSMLIPFRMPMMLLKDVVWDILALYQSGTSLWKIWRNNKQLDDTLVTVTVEQLQNSANDDNICIICMDELIHSPNQQTWKNKNKKPKRLPCGHILHLSCLKNWMERSQTCPICRLPVFDEKGNVVQTTFTSNSDITTQTTVTDSTGIATDQQGFANEVDLLPTRTTSPDIRIVPTQNIDTLAMRTRSTSTPSPTWYTFPLHKTGDNSVGSSRSAYEFLITNSDEKENGIPVKLTIENHEVNSLHGDGGEQIAKKIVIPDKFIQHI
partner: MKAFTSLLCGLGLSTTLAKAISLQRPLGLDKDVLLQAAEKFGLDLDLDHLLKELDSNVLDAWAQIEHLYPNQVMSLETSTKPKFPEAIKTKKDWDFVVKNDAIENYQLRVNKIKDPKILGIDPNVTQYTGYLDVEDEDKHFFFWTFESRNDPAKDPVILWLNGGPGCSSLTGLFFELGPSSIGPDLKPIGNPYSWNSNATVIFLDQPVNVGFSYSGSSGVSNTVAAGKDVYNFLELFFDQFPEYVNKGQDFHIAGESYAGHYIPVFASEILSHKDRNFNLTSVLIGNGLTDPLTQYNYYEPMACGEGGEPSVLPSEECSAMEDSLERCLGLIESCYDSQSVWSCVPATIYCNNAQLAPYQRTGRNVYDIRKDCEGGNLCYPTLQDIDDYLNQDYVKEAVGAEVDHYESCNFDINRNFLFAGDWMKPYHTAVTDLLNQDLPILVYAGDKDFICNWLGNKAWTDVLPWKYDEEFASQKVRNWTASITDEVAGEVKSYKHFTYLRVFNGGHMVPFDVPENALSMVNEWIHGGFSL

Variants of: B1
Conditions: with cbpy_yeast PRC1, P00729

Variant | effect of a mutation on the interaction
MVPENRRKQLAIFVVVTYLLTFYCVYSATKTSVSFLQVTLKLNEGFNLMVLSIFILLNSTLLWQLLTKLLFGELRLIEHEHIFERLPFTIINTLFMSSLFHERYFFTVAFFGLLLLYLKVFHWILKDRLEALLQSINDSTTMKTLIFSRFSFNLVLLAVVDYQIITRCISSIYTNQKSDIESTSLYLIQVMEFTMLLIDLLNLFLQTCLNFWEFYRSQQSLSNENNHIVHGDPTDENTVESDQSQPVLNDDDDDDDDDRQFTGLEGKFMYEKAIDVFTRFLKTALHLSMLIPFRMPMMLLKDVVWDILALYQSGTSLWKIWRNNKQLDDTLVTVTVEQLQNSANDDNICIICMDELIHSPNQQTWKNKNKKPKRLPCGHILHLSCLKNWMERSQTCPISRLPVFDEKGNVVQTTFTSNSDITTQTTVTDSTGIATDQQGFANEVDLLPTRTTSPDIRIVPTQNIDTLAMRTRSTSTPSPTWYTFPLHKTGDNSVGSSRSAYEFLITNSDEKENGIPVKLTIENHEVNSLHGDGGEQIAKKIVIPDKFIQHI [C399S] | decreasing interaction
